# Patent publication US20180273635A1 (Zymeworks, published 2018)
# Legend:
# Recombinant human HER2 [1] = target: T1, Recombinant human HER2 (human, UniProt P04626 23-652); experiment: SPR, 25 C; Ka ratio to WT v10013;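 also: constructs captured via anti-human Fc on CM5 chip, HER2 ECD as analyte in duplicate dilutions, sensorgrams globally fit to 1:1 Langmuir model on Biacore T200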
# T1 construct: extracellular domain; Analyte of the SPR assays; also called HER2 ECD; ECD2 of HER2
# Method: (§1) The affinity towards HER2 ECD of the samples was measured by SPR on a Biacore T200 as follows. Between 2000 and 4000 RU of anti-human Fc injected at concentration between 5 and 10 μg/ml was immobilized on a CM5 chip using standard amine coupling. Antigen-binding constructs were captured on the anti-human Fc (injected at concentration at 0.51 microg/mL in PBST, 1 min at 10 microl/min) at response levels ranging from 120-270 RU. […] HER2 dilutions were analyzed in duplicates. Sensograms were fit globally to a 1: 1 Langmuir binding model, using the software provided with the Biacore T200. All experiments were conducted at 25° C.
# Recombinant human HER2 [2] = target: T1, Recombinant human HER2; experiment: SPR, Biacore T200, 25 C; variant captured on anti-human Fc, HER2 flowed;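 also: HER2 extracellular domain analyte run as duplicate dilutions over amine-coupled anti-Fc on a CM5 chip, rates from global sensorgram fitting with a 1:1 Langmuir model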
# Method: as §1
# Recombinant human HER2 [3] = target: T1, Recombinant human HER2; experiment: calculated from the SPR Ka ratio to WT v10013;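 also: SPR at 25 °C with constructs captured on an anti-human Fc chip and HER2 extracellular domain as analyte, kinetics fitted to a 1:1 Langmuir model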
Binder,"Ka, mut/Ka, WT (Recombinant human HER2 [1])",Kd (Recombinant human HER2 [2]),koff (Recombinant human HER2 [2]),kon (Recombinant human HER2 [2]),ΔΔG (Recombinant human HER2 [3])
"Variant 14045 (antibody, human IgG1, kappa, OA (one-armed) format; clones 8784, 1811, 4372; also called v14045) heavy: EVQLVESGGGLVQPGGSLRLSCAASGFTFQDYTMDWVRQAPGKGLEWVADVNPNSGGSIYNQRFKGRFTLSVDRSWNTLYLQMNSLRAEDTAVYYCARNLGPWFYFDYWGQGTLVTVSSASTKGPSVFPLAPSSKSTSGGTAALGCLVKDYFPEPVTVSWNSGALTSGVHTFPAVLQSSGLYSLSSVVTVPSSSLGTQTYICNVNHKPSNTKVDKKVEPKSCDKTHTCPPCPAPELLGGPSVFLFPPKPKDTLMISRTPEVTCVVVDVSHEDPEVKFNWYVDGVEVHNAKTKPREEQYNSTYRVVSVLTVLHQDWLNGKEYKCKVSNKALPAPIEKTISKAKGQPREPQVYVYPPSRDELTKNQVSLTCLVKGFYPSDIAVEWESNGQPENNYKTTPPVLDSDGSFALVSKLTVDKSRWQQGNVFSCSVMHEALHNHYTQKSLSLSPG light: not shown not shown",~229 fold,~84 pM,~5.9e-06 s⁻¹,71000 M⁻¹ s⁻¹,-3.2 kcal/mol
"Variant 14046 (antibody, human IgG1, kappa, OA (one-armed) format; clones 7844, 8781, 4372; also called v14046) heavy: EVQLVESGGGLVQPGGSLRLSCAASGFTFTDYTMDWVRQAPGKGLEWVADVNPNSGGSIYNQRFKGRFTLSVDRSWNTLYLQMNSLRAEDTAVYYCARNLGPSFYFDYWGQGTLVTVSSASTKGPSVFPLAPSSKSTSGGTAALGCLVKDYFPEPVTVSWNSGALTSGVHTFPAVLQSSGLYSLSSVVTVPSSSLGTQTYICNVNHKPSNTKVDKKVEPKSCDKTHTCPPCPAPELLGGPSVFLFPPKPKDTLMISRTPEVTCVVVDVSHEDPEVKFNWYVDGVEVHNAKTKPREEQYNSTYRVVSVLTVLHQDWLNGKEYKCKVSNKALPAPIEKTISKAKGQPREPQVYVYPPSRDELTKNQVSLTCLVKGFYPSDIAVEWESNGQPENNYKTTPPVLDSDGSFALVSKLTVDKSRWQQGNVFSCSVMHEALHNHYTQKSLSLSPG light: not shown not shown",~212 fold,~91 pM,~9.1e-06 s⁻¹,100000 M⁻¹ s⁻¹,-3.2 kcal/mol
"Variant 14047 (antibody, human IgG1, kappa, OA (one-armed) format; clones 8775, 7917, 4372; also called v14047) heavy: EVQLVESGGGLVQPGGSLRLSCAASGFTFQDYTMDWVRQAPGKGLEWVADVNPNSGGSIYNQRFKGRFTLSVDRSWNTLYLQMNSLRAEDTAVYYCARNLGPSFYFDYWGQGTLVTVSSASTKGPSVFPLAPSSKSTSGGTAALGCLVKDYFPEPVTVSWNSGALTSGVHTFPAVLQSSGLYSLSSVVTVPSSSLGTQTYICNVNHKPSNTKVDKKVEPKSCDKTHTCPPCPAPELLGGPSVFLFPPKPKDTLMISRTPEVTCVVVDVSHEDPEVKFNWYVDGVEVHNAKTKPREEQYNSTYRVVSVLTVLHQDWLNGKEYKCKVSNKALPAPIEKTISKAKGQPREPQVYVYPPSRDELTKNQVSLTCLVKGFYPSDIAVEWESNGQPENNYKTTPPVLDSDGSFALVSKLTVDKSRWQQGNVFSCSVMHEALHNHYTQKSLSLSPG light: not shown not shown",~188 fold,~100 pM,~7.1e-06 s⁻¹,70000 M⁻¹ s⁻¹,-3.1 kcal/mol
"Variant 14049 (antibody, human IgG1, kappa, OA (one-armed) format; clones 8776, 7919, 4372; also called v14049) heavy: EVQLVESGGGLVQPGGSLRLSCAASGFTFYDYTMDWVRQAPGKGLEWVADVNPNSGGSIYNQRFKGRFTLSVDRSWNTLYLQMNSLRAEDTAVYYCARNLGPSFYFDYWGQGTLVTVSSASTKGPSVFPLAPSSKSTSGGTAALGCLVKDYFPEPVTVSWNSGALTSGVHTFPAVLQSSGLYSLSSVVTVPSSSLGTQTYICNVNHKPSNTKVDKKVEPKSCDKTHTCPPCPAPELLGGPSVFLFPPKPKDTLMISRTPEVTCVVVDVSHEDPEVKFNWYVDGVEVHNAKTKPREEQYNSTYRVVSVLTVLHQDWLNGKEYKCKVSNKALPAPIEKTISKAKGQPREPQVYVYPPSRDELTKNQVSLTCLVKGFYPSDIAVEWESNGQPENNYKTTPPVLDSDGSFALVSKLTVDKSRWQQGNVFSCSVMHEALHNHYTQKSLSLSPG light: not shown not shown",~103 fold,~190 pM,~1.4e-05 s⁻¹,77000 M⁻¹ s⁻¹,-2.7 kcal/mol
"Variant 14051 (antibody, human IgG1, kappa, OA (one-armed) format; clones 7815, 8781, 4372; also called v14051) heavy: EVQLVESGGGLVQPGGSLRLSCAASGFTFQDYTMDWVRQAPGKGLEWVADVNPNSGGSIYNQRFKGRFTLSVDRSKNTLYLQMNSLRAEDTAVYYCARNLGPSFYFDYWGQGTLVTVSSASTKGPSVFPLAPSSKSTSGGTAALGCLVKDYFPEPVTVSWNSGALTSGVHTFPAVLQSSGLYSLSSVVTVPSSSLGTQTYICNVNHKPSNTKVDKKVEPKSCDKTHTCPPCPAPELLGGPSVFLFPPKPKDTLMISRTPEVTCVVVDVSHEDPEVKFNWYVDGVEVHNAKTKPREEQYNSTYRVVSVLTVLHQDWLNGKEYKCKVSNKALPAPIEKTISKAKGQPREPQVYVYPPSRDELTKNQVSLTCLVKGFYPSDIAVEWESNGQPENNYKTTPPVLDSDGSFALVSKLTVDKSRWQQGNVFSCSVMHEALHNHYTQKSLSLSPG light: not shown not shown",~62 fold,~310 pM,~1.64e-05 s⁻¹,53000 M⁻¹ s⁻¹,-2.4 kcal/mol
"Variant 14056 (antibody, human IgG1, kappa, OA (one-armed) format; clones 8775, 8781, 4372; also called v14056) heavy: EVQLVESGGGLVQPGGSLRLSCAASGFTFQDYTMDWVRQAPGKGLEWVADVNPNSGGSIYNQRFKGRFTLSVDRSWNTLYLQMNSLRAEDTAVYYCARNLGPSFYFDYWGQGTLVTVSSASTKGPSVFPLAPSSKSTSGGTAALGCLVKDYFPEPVTVSWNSGALTSGVHTFPAVLQSSGLYSLSSVVTVPSSSLGTQTYICNVNHKPSNTKVDKKVEPKSCDKTHTCPPCPAPELLGGPSVFLFPPKPKDTLMISRTPEVTCVVVDVSHEDPEVKFNWYVDGVEVHNAKTKPREEQYNSTYRVVSVLTVLHQDWLNGKEYKCKVSNKALPAPIEKTISKAKGQPREPQVYVYPPSRDELTKNQVSLTCLVKGFYPSDIAVEWESNGQPENNYKTTPPVLDSDGSFALVSKLTVDKSRWQQGNVFSCSVMHEALHNHYTQKSLSLSPG light: not shown not shown",~148 fold,~110 pM,~8.4e-06 s⁻¹,76000 M⁻¹ s⁻¹,-3 kcal/mol
"Variant 14057 (antibody, human IgG1, kappa, OA (one-armed) format; clones 8774, 8781, 4372; also called v14057) heavy: EVQLVESGGGLVQPGGSLRLSCAASGFTFTDYTMDWVRQAPGKGLEWVADVNPNSGGSIYNQRFKGRFTLSVDRSWNTLYLQMNSLRAEDTAVYYCARNLGPWFYFDYWGQGTLVTVSSASTKGPSVFPLAPSSKSTSGGTAALGCLVKDYFPEPVTVSWNSGALTSGVHTFPAVLQSSGLYSLSSVVTVPSSSLGTQTYICNVNHKPSNTKVDKKVEPKSCDKTHTCPPCPAPELLGGPSVFLFPPKPKDTLMISRTPEVTCVVVDVSHEDPEVKFNWYVDGVEVHNAKTKPREEQYNSTYRVVSVLTVLHQDWLNGKEYKCKVSNKALPAPIEKTISKAKGQPREPQVYVYPPSRDELTKNQVSLTCLVKGFYPSDIAVEWESNGQPENNYKTTPPVLDSDGSFALVSKLTVDKSRWQQGNVFSCSVMHEALHNHYTQKSLSLSPG light: not shown not shown",5 fold,3600 pM,0.00045 s⁻¹,120000 M⁻¹ s⁻¹,-0.9 kcal/mol
"Variant 14058 (antibody, human IgG1, kappa, OA (one-armed) format; clones 8784, 7917, 4372; also called v14058) heavy: EVQLVESGGGLVQPGGSLRLSCAASGFTFQDYTMDWVRQAPGKGLEWVADVNPNSGGSIYNQRFKGRFTLSVDRSWNTLYLQMNSLRAEDTAVYYCARNLGPWFYFDYWGQGTLVTVSSASTKGPSVFPLAPSSKSTSGGTAALGCLVKDYFPEPVTVSWNSGALTSGVHTFPAVLQSSGLYSLSSVVTVPSSSLGTQTYICNVNHKPSNTKVDKKVEPKSCDKTHTCPPCPAPELLGGPSVFLFPPKPKDTLMISRTPEVTCVVVDVSHEDPEVKFNWYVDGVEVHNAKTKPREEQYNSTYRVVSVLTVLHQDWLNGKEYKCKVSNKALPAPIEKTISKAKGQPREPQVYVYPPSRDELTKNQVSLTCLVKGFYPSDIAVEWESNGQPENNYKTTPPVLDSDGSFALVSKLTVDKSRWQQGNVFSCSVMHEALHNHYTQKSLSLSPG light: not shown not shown",4 fold,3900 pM,0.00092 s⁻¹,240000 M⁻¹ s⁻¹,-0.9 kcal/mol
"Variant 14059 (antibody, human IgG1, kappa, OA (one-armed) format; clones 8776, 8781, 4372; also called v14059) heavy: EVQLVESGGGLVQPGGSLRLSCAASGFTFYDYTMDWVRQAPGKGLEWVADVNPNSGGSIYNQRFKGRFTLSVDRSWNTLYLQMNSLRAEDTAVYYCARNLGPSFYFDYWGQGTLVTVSSASTKGPSVFPLAPSSKSTSGGTAALGCLVKDYFPEPVTVSWNSGALTSGVHTFPAVLQSSGLYSLSSVVTVPSSSLGTQTYICNVNHKPSNTKVDKKVEPKSCDKTHTCPPCPAPELLGGPSVFLFPPKPKDTLMISRTPEVTCVVVDVSHEDPEVKFNWYVDGVEVHNAKTKPREEQYNSTYRVVSVLTVLHQDWLNGKEYKCKVSNKALPAPIEKTISKAKGQPREPQVYVYPPSRDELTKNQVSLTCLVKGFYPSDIAVEWESNGQPENNYKTTPPVLDSDGSFALVSKLTVDKSRWQQGNVFSCSVMHEALHNHYTQKSLSLSPG light: not shown not shown",~269 fold,~61 pM,~5.3e-06 s⁻¹,88000 M⁻¹ s⁻¹,-3.3 kcal/mol
"Variant 14060 (antibody, human IgG1, kappa, OA (one-armed) format; clones 8780, 8781, 4372; also called v14060) heavy: EVQLVESGGGLVQPGGSLRLSCAASGFTFQDYTMDWVRQAPGKGLEWVADVNPNSGGSIYNQRFKGRFTLSVDRSKNTLYLQMNSLRAEDTAVYYCARNLGPWFYFDYWGQGTLVTVSSASTKGPSVFPLAPSSKSTSGGTAALGCLVKDYFPEPVTVSWNSGALTSGVHTFPAVLQSSGLYSLSSVVTVPSSSLGTQTYICNVNHKPSNTKVDKKVEPKSCDKTHTCPPCPAPELLGGPSVFLFPPKPKDTLMISRTPEVTCVVVDVSHEDPEVKFNWYVDGVEVHNAKTKPREEQYNSTYRVVSVLTVLHQDWLNGKEYKCKVSNKALPAPIEKTISKAKGQPREPQVYVYPPSRDELTKNQVSLTCLVKGFYPSDIAVEWESNGQPENNYKTTPPVLDSDGSFALVSKLTVDKSRWQQGNVFSCSVMHEALHNHYTQKSLSLSPG light: not shown not shown",2 fold,9200 pM,0.0013 s⁻¹,140000 M⁻¹ s⁻¹,-0.3 kcal/mol
"Variant 14062 (antibody, human IgG1, kappa, OA (one-armed) format; clones 8789, 7919, 4372; also called v14062) heavy: EVQLVESGGGLVQPGGSLRLSCAASGFTFQDYTMDWVRQAPGKGLEWVADVNPNSGYSIYNQRFKGRFTLSVDRSKNTLYLQMNSLRAEDTAVYYCARNLGPWFYFDYWGQGTLVTVSSASTKGPSVFPLAPSSKSTSGGTAALGCLVKDYFPEPVTVSWNSGALTSGVHTFPAVLQSSGLYSLSSVVTVPSSSLGTQTYICNVNHKPSNTKVDKKVEPKSCDKTHTCPPCPAPELLGGPSVFLFPPKPKDTLMISRTPEVTCVVVDVSHEDPEVKFNWYVDGVEVHNAKTKPREEQYNSTYRVVSVLTVLHQDWLNGKEYKCKVSNKALPAPIEKTISKAKGQPREPQVYVYPPSRDELTKNQVSLTCLVKGFYPSDIAVEWESNGQPENNYKTTPPVLDSDGSFALVSKLTVDKSRWQQGNVFSCSVMHEALHNHYTQKSLSLSPG light: not shown not shown",26 fold,630 pM,3.5e-05 s⁻¹,56000 M⁻¹ s⁻¹,-1.9 kcal/mol
